Experimental data taken from article PMC4338332 (RNA, 2015).

Biological target: T1, Non-POU domain-containing octamer-binding protein (NONO), endogenous, from HeLa nuclear extract (human (endogenous in HeLa), UniProt Q15233 1-471)
T1 sequence: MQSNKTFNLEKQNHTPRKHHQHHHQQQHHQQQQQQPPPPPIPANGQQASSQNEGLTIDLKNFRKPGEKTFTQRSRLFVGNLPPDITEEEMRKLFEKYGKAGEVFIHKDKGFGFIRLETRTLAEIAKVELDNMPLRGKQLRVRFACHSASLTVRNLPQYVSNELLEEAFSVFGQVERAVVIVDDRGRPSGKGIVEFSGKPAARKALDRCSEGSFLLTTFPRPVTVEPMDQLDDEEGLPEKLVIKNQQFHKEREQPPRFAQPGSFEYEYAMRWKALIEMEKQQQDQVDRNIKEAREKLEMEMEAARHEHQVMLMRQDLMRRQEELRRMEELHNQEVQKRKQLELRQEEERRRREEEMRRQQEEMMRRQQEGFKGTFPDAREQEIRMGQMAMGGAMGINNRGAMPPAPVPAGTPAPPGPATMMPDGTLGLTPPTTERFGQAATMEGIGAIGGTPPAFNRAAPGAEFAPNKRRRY
Test: affinity purification with mass spectrometry

stoichiometry N: 1
B1: Splicing factor, proline- and glutamine-rich (SFPQ), endogenous, from HeLa nuclear extract (natural protein)
chain: MSRDRFRSRGGGGGGFHRRGGGGGRGGLHDFRSPPPGMGLNQNRGPMGPGPGQSGPKPPIPPPPPHQQQQQPPPQQPPPQQPPPHQPPPHPQPHQQQQPPPPPQDSSKPVVAQGPGPAPGVGSAPPASSSAPPATPPTSGAPPGSGPGPTPTPPPAVTSAPPGAPPPTPPSSGVPTTPPQAGGPPPPPAAVPGPGPGPKQGPGPGGPKGGKMPGGPKPGGGPGLSTPGGHPKPPHRGGGEPRGGRQHHPPYHQQHHQGPPPGGPGGRSEEKISDSEGFKANLSLLRRPGEKTYTQRCRLFVGNLPADITEDEFKRLFAKYGEPGEVFINKGKGFGFIKLESRALAEIAKAELDDTPMRGRQLRVRFATHAAALSVRNLSPYVSNELLEEAFSQFGPIERAVVIVDDRGRSTGKGIVEFASKPAARKAFERCSEGVFLLTTTPRPVIVEPLEQLDDEDGLPEKLAQKNPMYQKERETPPRFAQHGTFEYEYSQRWKSLDEMEKQQREQVEKNMKDAKDKLESEMEDAYHEHQANLLRQDLMRRQEELRRMEELHNQEMQKRKEMQLRQEEERRRREEEMMIRQREMEEQMRRQREESYSRMGYMDPRERDMRMGGGGAMNMGDPYGSGGQKFPPLGGGGGIGYEANPGVPPATMSGSMMGSDMRTERFGQGGAGPVGGQGPRGMGPGTPAGYGRGREEYEGPNKKPRF
